In patent publication US20190092862A1 (GENERON SHANGHAI, published 2019):

T1: huEpCAM.Fc (human EpCAM antigen construct) (human, UniProt P16422 24-265, limits assumed)
T1 construct: not shown: human IgG Fc
T1 sequence (looked up): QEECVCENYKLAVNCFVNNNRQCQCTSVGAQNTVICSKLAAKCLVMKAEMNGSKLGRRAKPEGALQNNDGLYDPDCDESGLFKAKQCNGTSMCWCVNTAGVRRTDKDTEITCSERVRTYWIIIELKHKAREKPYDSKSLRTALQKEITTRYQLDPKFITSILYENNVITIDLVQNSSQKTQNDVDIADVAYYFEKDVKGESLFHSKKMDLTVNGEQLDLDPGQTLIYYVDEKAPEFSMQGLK

T2: cynoCD3ε AA 1-27.Fc (cynomolgus CD3 antigen construct) (cynomolgus monkey; human, UniProt Q95LI5 22-48)
T2 construct: range 1-27; not shown: human IgG Fc
T2 chain (looked up): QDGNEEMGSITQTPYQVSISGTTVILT

T3: human EpCAM on SW480 cells (human, UniProt P16422 24-314)
T3 construct: whole, on cells; also called SW480 cells expressing human EpCAM; human colon cancer cell line SW480
T3 sequence (looked up): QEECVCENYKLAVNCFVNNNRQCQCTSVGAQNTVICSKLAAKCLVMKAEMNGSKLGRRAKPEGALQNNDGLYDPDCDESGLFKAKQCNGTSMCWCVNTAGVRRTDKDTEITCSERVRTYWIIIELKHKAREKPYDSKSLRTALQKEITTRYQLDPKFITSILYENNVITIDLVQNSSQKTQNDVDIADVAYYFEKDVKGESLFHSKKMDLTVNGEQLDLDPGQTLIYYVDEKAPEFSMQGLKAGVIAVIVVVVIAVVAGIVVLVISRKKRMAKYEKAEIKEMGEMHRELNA


Experiments:
[1] = biological target: T1, huEpCAM.Fc (human EpCAM antigen …); experiment: BLI (Octet QKe), antigen-Fc captured on AHC biosensor
Method: (§1) The expressions of the antigen constructs is described in U.S. Pat. No. 8,846,042. The antigen constructs were diluted to 0.02 mg/mL with dilution(PBS, 0.1% BSA, 0.02% Tween-20, 0.05% NaN3), and then immobilized on an anti-hIgG Fc capture (AHC) biosensor. […] The control wells containing only PBS were also set up. The detection results were analyzed using ForteBio Data Acquisition and ForteBio Data Analysis software.

[2] = biological target: T1, huEpCAM.Fc (human EpCAM antigen …); experiment: BLI (Octet QKe), antigen-Fc captured on AHC biosensor, ITAB1002 in solution
Method: as §1

[3] = biological target: T2, cynoCD3ε AA 1-27.Fc (cynomolgus CD3 …); experiment: as above
Method: as §1

[4] = biological target: cynoEpCAM.Fc (cynomolgus EpCAM antigen construct) (cynomolgus monkey; human); experiment: as above
Method: as §1

[5] = biological target: T3, human EpCAM on SW480 cells; experiment: flow cytometry on SW480 cells expressing human EpCAM
Method: (§2) SW480 cells and CyEpCAM-CHO cells were trypsinized with 0.25% Trypsin-EDTA (Gibco), resuspended with a FACS buffer. […] Cells were then washed with the FACS buffer and resuspended in 50 μL FACS buffer. Mouse anti-Human IgG Fab Secondary Antibody PE conjugate(Invitrogen) were added, and allowed for incubation at 4° C. for 30 min. 150 μL FACS buffer was finally added, and the samples were analyzed using ACCURI® C6 Cytometer (BD Biosciences).

[6] = biological target: T4, cynomolgus monkey EpCAM on transfected CHO cells (CyEpCAM-CHO) (cynomolgus monkey); experiment: flow cytometry on CHO cells expressing cynomolgus monkey EpCAM (CyEpCAM-CHO)
T4 construct: whole, on cells; also called CHO cells expressing cynomolgus monkey EpCAM on the cell surface
Method: as §2

human CD3 on human PBMC = biological target: T5, human CD3 on human PBMC (human, UniProt P07766 23-207); experiment: flow cytometry (FACS) on human PBMC, detection with PE mouse anti-human lambda light chain, co-staining with CD4 antibody; y axis Binding rate (%)
T5 construct: whole, on cells; also called hPBMC; huPBMC
Method: Cells were washed with the FACS buffer once, resuspended in 50 μL FACS buffer, supplemented with CD4 Antibody (RFT-4g) APC-Cy7® conjugate(Invitrogen) and PE Mouse Anti-Human Light Chain […], (BD Pharmingen™), and incubated at room temperature for 45 min. 150 μL FACS buffer was finally added, and the samples were analyzed using ACCURI® C6 Cytometer (BD Biosciences).

T5 sequence (P07766 23-207): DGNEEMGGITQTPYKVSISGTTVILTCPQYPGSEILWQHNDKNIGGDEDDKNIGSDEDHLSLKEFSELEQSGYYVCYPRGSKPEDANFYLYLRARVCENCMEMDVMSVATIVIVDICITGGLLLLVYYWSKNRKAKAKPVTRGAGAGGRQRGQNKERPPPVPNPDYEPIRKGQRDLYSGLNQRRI
T4 sequence (Q1WER1 24-314): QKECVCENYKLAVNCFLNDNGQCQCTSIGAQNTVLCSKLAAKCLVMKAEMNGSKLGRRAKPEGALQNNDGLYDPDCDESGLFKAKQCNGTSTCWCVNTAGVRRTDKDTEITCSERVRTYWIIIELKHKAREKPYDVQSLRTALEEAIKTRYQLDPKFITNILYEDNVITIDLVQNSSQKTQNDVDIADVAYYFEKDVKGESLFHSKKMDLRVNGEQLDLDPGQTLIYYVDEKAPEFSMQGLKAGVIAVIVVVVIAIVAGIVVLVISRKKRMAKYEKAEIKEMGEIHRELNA

Binder	Kd [1] [nM]	koff [1] [s⁻¹]	kon [1] [M⁻¹ s⁻¹]	Kd [2] [nM]	Kd [3] [nM]	Kd [4] [nM]	EC50 [5] [µg/mL]	EC50 [6] [µg/mL]	EC50 (read off the curve) (human CD3 on human PBMC) [µg/mL]
ITAB1002 (exemplary EpCAM×CD3 Fab fusion protein) (bispecific antibody, An anti-EpCAM scFv is fused to the N-terminus of each chain of an anti-CD3 Fab; there is no Fc; also called EpCAM x CD3 Fab fusion protein; ITB1002) heavy: EVQLVESGGGLVQPGGSLRLSCAASGFTFSNYWMSWVRQAPGKGLEWVANIKQDGSEKFYADSVKGRFTISRDNAKNSLYLQMNSLRAEDTAVYYCARVGPSWEQDYWGQGTLVTVSAGGGGSGGGGSGGGGSGAQSVLTQPPSVSGAPGQRVTISCTGSSSNIGSYYGVHWYQQLPGTAPKLLIYSDTNRPSGVPDRFSGSKSGTSASLAITGLQAEDEADYYCQSYDKGFGHRVFGGGTKLTVLGGEVQLVESGGGLVQPGGSLRLSCAASGFTFNTYAMNWVRQAPGKGLEWVARIRSKYNNYATYYADSVKDRFTISRDDSKNTLYLQMNSLRAEDTAVYYCVRHGNFGNSYVSWFAYWGQGTMVTVSSASTKGPSVFPLAPSSKSTSGGTAALGCLVKDYFPEPVTVSWNSGALTSGVHTFPAVLQSSGLYSLSSVVTVPSSSLGTQTYICNVNHKPSNTKVDKKVEPKSCPPCS light: EVQLVESGGGLVQPGGSLRLSCAASGFTFSNYWMSWVRQAPGKGLEWVANIKQDGSEKFYADSVKGRFTISRDNAKNSLYLQMNSLRAEDTAVYYCARVGPSWEQDYWGQGTLVTVSAGGGGSGGGGSGGGGSGAQSVLTQPPSVSGAPGQRVTISCTGSSSNIGSYYGVHWYQQLPGTAPKLLIYSDTNRPSGVPDRFSGSKSGTSASLAITGLQAEDEADYYCQSYDKGFGHRVFGGGTKLTVLGGQAVVTQEPSLTVSPGGTVTLTCRSSTGAVTTSNYANWVQQKPGQAPRGLIGGTNKRAPGTPARFSGSLLGGKAALTLSGVQPEDEAEYYCALWYSNLWVFGGGTKLTVLGQPKAAPSVTLFPPSSEELQANKATLVCLISDFYPGAVTVAWKADSSPVKAGVETTTPSKQSNNKYAASSYLSLTPEQWKSHRSYSCQVTHEGSTVEKTVAPTECPPCS	2.49	4.98e-05	20000	3.49	15.6	4.71	0.411	0.108	~0.1
ITAB1012 (EpCAM×CD3 Fab fusion protein with a different EpCAM scFv) (bispecific antibody, Its EpCAM scFv has different HVRs from that of ITAB1002; It has the same anti-CD3 Fab and was transiently expressed; also called EpCAMA×CD3 Fab fusion protein) heavy: EVQLVESGGGLVQPGGSLRLSCAASGFTFSNYWMSWVRQAPGKGLEWVANIKQDGSEKFYVDSVKGRFTISRDNAKNSLYLQMNSLRAEDMAVYYCARVGGAWELGYWGQGTLVTVSAGGGGSGGGGSGGGGSGAQSVLTQPPSVSGAPGQRVTISCTGSSSNIGSYYGVHWYQQLPGTAPKLLIYSDTNRPSGVPDRFSGSKSGTSASLAITGLQAEDEADYYCQSYDSSLSGRVFGGGTKLTVLGGEVQLVESGGGLVQPGGSLRLSCAASGFTFNTYAMNWVRQAPGKGLEWVARIRSKYNNYATYYADSVKDRFTISRDDSKNTLYLQMNSLRAEDTAVYYCVRHGNFGNSYVSWFAYWGQGTMVTVSSASTKGPSVFPLAPSSKSTSGGTAALGCLVKDYFPEPVTVSWNSGALTSGVHTFPAVLQSSGLYSLSSVVTVPSSSLGTQTYICNVNHKPSNTKVDKKVEPKSCPPCS light: EVQLVESGGGLVQPGGSLRLSCAASGFTFSNYWMSWVRQAPGKGLEWVANIKQDGSEKFYVDSVKGRFTISRDNAKNSLYLQMNSLRAEDMAVYYCARVGGAWELGYWGQGTLVTVSAGGGGSGGGGSGGGGSGAQSVLTQPPSVSGAPGQRVTISCTGSSSNIGSYYGVHWYQQLPGTAPKLLIYSDTNRPSGVPDRFSGSKSGTSASLAITGLQAEDEADYYCQSYDSSLSGRVFGGGTKLTVLGGQAVVTQEPSLTVSPGGTVTLTCRSSTGAVTTSNYANWVQQKPGQAPRGLIGGTNKRAPGTPARFSGSLLGGKAALTLSGVQPEDEAEYYCALWYSNLWVFGGGTKLTVLGQPKAAPSVTLFPPSSEELQANKATLVCLISDFYPGAVTVAWKADSSPVKAGVETTTPSKQSNNKYAASSYLSLTPEQWKSHRSYSCQVTHEGSTVEKTVAPTECPPCS	47.8	0.00647	135000	–	–	–	–	–	–
